Source: patent US10836794B2, “Group of peptides for treating female sexual dysfunction” (“IVIX” Ltd., priority 2016, dated 2020)
Non-standard residues stand in square brackets, D forms with d. No end group written: not given here. Hyp = O=C(O)[C@@H]1C[C@@H](O)CN1

Tests used:
[1] = Stability of liquid pharmaceutical forms (peptide 0.2 %, benzalkonium chloride 0.01 %, water) during storage; single and total impurities; assay type: physicochemical
Source text: Investigations of the Stability of Pharmaceutical Forms Containing Peptides Having the Property of Stimulating the Genital and Sexual Functions
This experiment investigated the stability of compositions containing peptides according to the invention. The results of the investigations are illustrated by the example of several peptides according to the invention containing hydroxyproline, in particular Thr-Lys-Hyp […], Thr-Lys-Hyp-Arg-Hyp (SEQ ID NO: 13), Thr-Lys-Hyp-Arg-Hyp-Phe and Thr-Lys-Hyp-Arg-Hyp-Gly-Hyp (SEQ ID NO: 14).
The peptides described in RU2507212 were also obtained, in particular Thr-Lys-Pro, Thr-Lys-Pro-Arg-Pro (SEQ ID NO: 6), Thr-Lys-Pro-Arg-Pro-Phe (SEQ ID NO: 7) and Thr-Lys-Pro-Arg-Pro-Gly-Pro (SEQ ID NO: 1).
From the compounds obtained, a liquid pharmaceutical form (a solution) was prepared, including the peptide and the preservative benzalkonium chloride with the following ratio of components: 0.2 and 0.01 mass %, respectively, water the rest. Samples were placed in storage at two temperature regimes, namely, +4° C. and +25° C. Investigation of the stability of the peptides was carried out after 1, 3, 6, 12, and 24 months of storage. In the investigation of the samples for stability, the quantity of single impurities and the total quantity of impurities were evaluated, testifying to the degradation of the peptides. The pharmaceutical requirements of the company for impurities are: any single impurity, not more than 1.5%; total content of impurities, not more than 3.0%. If the content of impurities exceeded the above indicated values, the pharmaceutical form was deemed to have failed the test for stability.

female rats = test: Efficacy in vivo on preclinical model (Lordoz test): proceptive behavior of ovarioectomized, hormonally stimulated females; details: 100 mcg/rat, progesterone 0.5 mg/rat
Description: Investigation of the Efficacy of the Peptides of the Invention as a Means of Stimulating the Genital and Sexual Functions
In order to confirm the efficacy as a means of stimulating the genital and sexual functions, peptides according to the invention were synthesized, in particular the tripeptide Thr-Lys-Hyp, the pentapeptide Thr-Lys-Hyp-Arg-Hyp (SEQ ID NO: 12), and the hexapeptide Thr-Lys-Hyp-Arg-Hyp-Phe (SEQ ID NO: 13), and tests were performed as to the efficacy in vivo on the relevant preclinical model (Lordoz test). Furthermore, the efficacy of the group of peptides Thr-Lys-Pro, Thr-Lys-Pro-Arg-Pro (SEQ ID NO: 6), and Thr-Lys-Pro-Arg-Pro-Phe (SEQ ID NO: 7) was also investigated.
The efficacy of the aforementioned groups of peptides was investigated in a dose of 100 mcg/rat with respect to the sexual behavior of female rats. The sexual behavior was registered over the course of 0-16 days in ovarioectomized, hormonally stimulated females in the case of direct contact with sexually active males and in the case when no such contact was possible. […] The results testify to an increase in sexual motivation under the action of the peptides Thr-Lys-Hyp, Thr-Lys-Hyp-Arg-Hyp (SEQ ID NO: 12), and Thr-Lys-Hyp-Arg-Hyp-Phe (SEQ ID NO: 13).

[2] = stored for 1 month at +4° C., solution 0.2 mass % peptide, 0.01 mass % benzalkonium chloride
[3] = stored for 1 month at +25° C., solution 0.2 mass % peptide, 0.01 mass % benzalkonium chloride
[4] = stored for 12 months at +25° C.
[5] = stored for 24 months at +25° C.

Row | Substance | Single impurities [1, 2] | Total impurities [1, 2] | Single impurities [1, 3] | Total impurities [1, 3] | Single impurities ([1]; stored for 3 months at +4° C.) | Total impurities ([1]; stored for 3 months at +4° C.) | Single impurities ([1]; stored for 3 months at +25° C.) | Total impurities ([1]; stored for 3 months at +25° C.) | Single impurities ([1]; stored for 6 months at +4° C.) | Total impurities ([1]; stored for 6 months at +4° C.) | Single impurities ([1]; stored for 6 months at +25° C.) | Total impurities ([1]; stored for 6 months at +25° C.) | Single impurities ([1]; stored for 12 months at +4° C.) | Total impurities ([1]; stored for 12 months at +4° C.) | Single impurities ([1]; stored for 24 months at +4° C.) | Total impurities ([1]; stored for 24 months at +4° C.) | Number of proceptive behavior acts (female rats; day 0 of giving the drug) | Number of proceptive behavior acts (female rats; day 5 of giving the drug) | Number of proceptive behavior acts (female rats; day 11 of giving the drug) | Number of proceptive behavior acts (female rats; day 16 of giving the drug) | further results
1 | Thr-Lys-Pro [reference compound] | 0.051% | 0.13% | 0.06% | 0.1% | 0.053% | 0.135% | 0.13% | 0.25% | 0.3% | 0.9% | 1.7% | 3.1% | 0.9% | 1.7% | 1.2% | 2.2% | 14 ± 4 | 15 ± 4 | 20 ± 4 | 28 ± 4 | 
2 | Thr-Lys-Hyp-Arg-Hyp-Phe (TK[Hyp]R[Hyp]F) [hexapeptide of the invention containing hydroxyproline] | 0.067% | 0.15% | 0.032% | 0.09% | 0.068% | 0.15% | 0.033% | 0.09% | 0.08% | 0.2% | 0.09% | 0.6% | 0.1% | 0.3% | 0.9% | 1.9% | 14 ± 4 | 24 ± 4 | 23 ± 4 | 24 ± 4 | Single impurities [1, 4]: 0.4%; Total impurities [1, 4]: 0.8%; Single impurities [1, 5]: 1.3%; Total impurities [1, 5]: 2.7%
3 | Thr-Lys-Pro-Arg-Pro (TKPRP; not fully specified; printed as Thr-Lys-Pro-Arg-Pro) [pentapeptide described in RU2507212, comparison peptide, reference compound] | 0.042% | 0.09% | 0.067% | 0.54% | 0.042% | 0.93% | 0.19% | 0.9% | 0.09% | 1% | 1.4% | 3.0% | 0.8% | 1.5% | 1.1% | 1.9% | 12 ± 4 | 15 ± 4 | 24 ± 4 | 36 ± 6 | Single impurities [1, 4]: 4%; Total impurities [1, 4]: 6%
4 | Thr-Lys-Hyp-Arg-Hyp-Gly-Hyp (TK[Hyp]R[Hyp]G[Hyp]) [peptide according to the invention containing hydroxyproline] | 0.049% | 0.12% | 0.069% | 0.14% | 0.05% | 0.12% | 0.07% | 0.5% | 0.06% | 0.14% | 0.09% | 0.9% | 0.09% | 0.3% | 0.1% | 1.1% |  |  |  |  | Single impurities [1, 4]: 0.3%; Total impurities [1, 4]: 1.1%; Single impurities [1, 5]: 1.2%; Total impurities [1, 5]: 2.6%
